In paper PMC7784689, “Structural mechanism of phospholipids translocation by MlaFEDB complex” (Cell Research, 2020):

Substrate: Nc1ncnc2c1ncn2[C@@H]1O[C@H](COP(=O)(O)OP(=O)(O)OP(=O)(O)O)[C@@H](O)[C@H]1O
Assay: purified protein
Type: biochemical, Escherichia coli
Conditions: nanodisc-embedded complex (POPG), 0-4 mM ATP, 37 °C, 30 min

B1: MlaFEDB (Escherichia coli K-12) (protein)
chain: MEQSVANLVDMRDVSFTRGNRCIFDNISLTVPRGKITAIMGPSGIGKTTLLRLIGGQIAPDHGEILFDGENIPAMSRSRLYTVRKRMSMLFQSGALFTDMNVFDNVAYPLREHTQLPAPLLHSTVMMKLEAVGLRGAAKLMPSELSGGMARRAALARAIALEPDLIMFDEPFVGQDPITMGVLVKLISELNSALGVTCVVVSHDVPEVLSIADHAWILADKKIVAHGSAQALQANPDPRVRQFLDGIADGPVPFRYPAGDYHADLLPGS
notes: mlaFEDCB operon in pET20b, C-terminal His-tag on MlaB; host E. coli C43(DE3); purified in DDM, reconstituted in MSP1D1/POPG nanodisc; MlaC only in traces (by MS); with Intermembrane phospholipid transport system permease protein MlaE
For B1, the Km was 90 ± 20 µM.
